Results published in patent CN113999308A (SHENZHEN PEOPLES HOSPITAL, dated 2022).

Molecular target: T1, CDH17蛋白细胞外段1~3结构域 (recombinant CDH17 extracellular domains 1-3) (human, UniProt Q12864 23-340, limits assumed)
T1 construct: domain: 细胞外段1~3 结构域; purified on Ni resin, so probably His-tagged, but the tag is not described; also called CDH17 1-3D; CDH17 1~3结构域蛋白
T1 sequence (looked up): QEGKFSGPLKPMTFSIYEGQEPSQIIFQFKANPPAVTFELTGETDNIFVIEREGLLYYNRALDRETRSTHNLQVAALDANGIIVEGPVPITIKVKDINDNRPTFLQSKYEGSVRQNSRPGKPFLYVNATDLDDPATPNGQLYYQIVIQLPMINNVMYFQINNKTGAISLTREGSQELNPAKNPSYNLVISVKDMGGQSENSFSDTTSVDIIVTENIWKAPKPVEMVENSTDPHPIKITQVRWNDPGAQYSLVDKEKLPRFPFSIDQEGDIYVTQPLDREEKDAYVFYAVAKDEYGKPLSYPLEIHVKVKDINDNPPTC
Experiment: SPR (Biacore), purified antigen on the chip, nanobody as analyte (Fig. 5E)

B1: Nb193纳米抗体 (Nb193 nanobody) (VHH)
VHH: AVQLVESGGGLVQAGGSLRLSCVASGSTLERYAVYWYRQPPGKERELVAGIMRGGNINYADSVKGRFTISKDYAKNTLILQMNSLKPEDTAVYYCNAGGSRFGYWGQGTQVTVSS
notes: From a naive alpaca phage display nanobody library; Expressed in E. coli with HA tag and His tag, about 15 kDa; the tag piece is put last only for want of better; not shown: HA tag and His tag fused to the nanobody (pET-14B, E. coli)
- Kd: 17.6 nM
